Values belong to the binder of their own block, whether it stands above or below them.
Key:
[1] = molecular target: T1, human IL-1RAcP on 293T/17-FR cells (human, UniProt Q9NPH3 21-570); assay: cell-based or functional assay
T1 sequence (looked up): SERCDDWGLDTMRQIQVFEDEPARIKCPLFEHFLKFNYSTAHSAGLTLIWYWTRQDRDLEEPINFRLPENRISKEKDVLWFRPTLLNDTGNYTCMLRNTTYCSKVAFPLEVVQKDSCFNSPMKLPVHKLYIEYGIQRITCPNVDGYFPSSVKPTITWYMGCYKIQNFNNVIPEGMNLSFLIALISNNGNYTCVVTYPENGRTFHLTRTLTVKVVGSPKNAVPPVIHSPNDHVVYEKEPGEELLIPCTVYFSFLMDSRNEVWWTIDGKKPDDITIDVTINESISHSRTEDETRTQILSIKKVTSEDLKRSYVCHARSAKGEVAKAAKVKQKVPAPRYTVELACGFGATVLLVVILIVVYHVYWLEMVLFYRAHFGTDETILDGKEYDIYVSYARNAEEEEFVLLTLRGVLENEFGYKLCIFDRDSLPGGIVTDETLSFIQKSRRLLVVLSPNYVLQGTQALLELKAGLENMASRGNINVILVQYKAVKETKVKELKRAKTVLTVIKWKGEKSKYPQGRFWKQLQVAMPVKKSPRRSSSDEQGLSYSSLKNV

rhIL-1RAcP/Fc Chimera [2] = molecular target: T2, rhIL-1RAcP/Fc Chimera (human, UniProt Q9NPH3 21-359); assay: ELISA, recombinant purified mAb
T2 construct: also called P013_03; P013-03
T2 sequence (looked up): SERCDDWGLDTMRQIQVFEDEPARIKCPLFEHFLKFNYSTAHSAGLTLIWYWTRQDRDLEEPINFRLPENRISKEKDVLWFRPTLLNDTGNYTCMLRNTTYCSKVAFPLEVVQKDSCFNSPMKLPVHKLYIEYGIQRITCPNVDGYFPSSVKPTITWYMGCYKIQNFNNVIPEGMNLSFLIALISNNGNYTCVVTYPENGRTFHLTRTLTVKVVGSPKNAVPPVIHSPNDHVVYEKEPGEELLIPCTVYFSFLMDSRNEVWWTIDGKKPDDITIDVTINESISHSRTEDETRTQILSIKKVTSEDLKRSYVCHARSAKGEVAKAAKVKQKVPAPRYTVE

rhIL-1RAcP/Fc Chimera [3] = molecular target: T2, rhIL-1RAcP/Fc Chimera; assay: ELISA, primary supernatant, coated hu-IL-1RAcP-Fc
Procedure, shortened: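 Plates coated with 0.5 μg/mL Fc-tagged human IL-1RAcP; rabbit B-cell supernatant antibodies detected by peroxidase anti-rabbit IgG Fab2 and TMB, absorbance 450/620 nm. Parallel IL12Rβ1-Fc coating served as counterscreen to exclude tag binders.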

mIL1RAcP-Fc = molecular target: T3, mIL1RAcP-Fc (murine, UniProt Q61730 21-359); assay: ELISA, primary supernatant, coated mu-IL-1RAcP-Fc
T3 construct: also called P013_04; P013-04
T3 sequence (looked up): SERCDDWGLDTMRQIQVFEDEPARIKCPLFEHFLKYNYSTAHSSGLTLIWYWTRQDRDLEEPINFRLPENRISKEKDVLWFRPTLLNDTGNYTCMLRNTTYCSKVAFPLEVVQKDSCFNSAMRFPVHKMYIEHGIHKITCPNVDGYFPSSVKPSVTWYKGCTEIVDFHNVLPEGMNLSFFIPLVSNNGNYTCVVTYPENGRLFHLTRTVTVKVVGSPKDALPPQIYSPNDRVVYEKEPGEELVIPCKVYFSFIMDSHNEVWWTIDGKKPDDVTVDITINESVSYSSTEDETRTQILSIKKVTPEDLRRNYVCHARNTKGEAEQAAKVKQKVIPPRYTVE

functional reporter gene assay (% inhibition), 0.04 µg/mL mAb [1]: 1%
functional reporter gene assay (% inhibition), 0.2 µg/mL mAb [1]: 22%
functional reporter gene assay (% inhibition), 1 µg/mL mAb [1]: 58%
functional reporter gene assay (% inhibition), 5 µg/mL mAb [1]: 79%
primary supernatant functional assay (% inh.), NF-kB luciferase reporter [1]: 85%
EC50 (rhIL-1RAcP/Fc Chimera [2]): 0.541 µg/mL
hu-IL1RaP ELISA (OD) (rhIL-1RAcP/Fc Chimera [3]): 3.3 OD
mu-IL1RaP ELISA (OD) (mIL1RAcP-Fc): 0 OD
B4: P013.S.02.B.D02 (antibody, V domains shown)
VH: QSLEESGGDLVKPGASLKLSCTASGVSFSSAYWMCWVRQAPGKGLEWIACIYAGSSGSTYYASWAKGRFTISKTSSTTVTLQMTSLTAADTATYFCARHAAWFELDLWGPGTLVTVSS
VL: ALVMTQTPSPVSAAVGGTVTINCQASQNIASAYLSWYQQKPGQPPKLLIYAASTLTDGVPSRFKGSGSVTEFTLTISGVQSDDAATYYCAGYKSYTDDEFAFGGGTEVVVK
notes: rabbit monoclonal antibody; also called P013.A.00086.F05

functional reporter gene assay (% inhibition), 0.04 µg/mL mAb [1]: -6%
functional reporter gene assay (% inhibition), 0.2 µg/mL mAb [1]: 14%
functional reporter gene assay (% inhibition), 1 µg/mL mAb [1]: 56%
functional reporter gene assay (% inhibition), 5 µg/mL mAb [1]: 86%
primary supernatant functional assay (% inh.), NF-kB luciferase reporter [1]: 79%
EC50 (rhIL-1RAcP/Fc Chimera [2]): 0.137 µg/mL
hu-IL1RaP ELISA (OD) (rhIL-1RAcP/Fc Chimera [3]): 3.7 OD
mu-IL1RaP ELISA (OD) (mIL1RAcP-Fc): -0.1 OD
B5: P013.S.02.B.E01 (antibody, V domains shown)
VH: QSLEESGGRLVTPGTPLTLTCTVSGFSLSIYGMGWVRQAPGEGLEWIGSISSGGSTYYATWAKGRFTISKTSSTTLDLKITSPTTEDTATYFCVRSDGYTNGDYDTYFNLWGQGTLVTVS
VL: DIVMTQTPASVSEPVGGTVTIRCQASQSISSWLSWYQQKPGQPPKLLIYQASALASGVSSRFIGSGYGTEFTLTISGVQSEDAATYYCQCTYGIGSNSDYGVAFGGGTEVVVK
notes: rabbit monoclonal antibody; also called P013.A.00013.G07

More lines, now with the values behind:

B1: P013.S.01.B.E03 (antibody, V domains shown)
VH: QSLEESGGRLVTPGTPLTLTCTASGFSITNYHISWVRQAPGKGLEWIGYIYAGRDFTYYANWAEGRFTISKTSTTVDLQVTVPTTEDTATYFCARDGGSPNWTLDLWGQGTLVTVSS
VL: DVVMTQTPASVSEPVGGTVTINCQASESISDYLSWYQQKPGQPPKLLIYRASTLESGVSSRFKGSGSGTQFTLTISDLESADAATYYCQSNYYDSRGNAFGGGTEVVVK
notes: rabbit monoclonal antibody; also called P013.A.00015.E03
functional reporter gene assay (% inhibition), 0.04 µg/mL mAb [1]: 54%
functional reporter gene assay (% inhibition), 0.2 µg/mL mAb [1]: 63%
functional reporter gene assay (% inhibition), 1 µg/mL mAb [1]: 60%
functional reporter gene assay (% inhibition), 5 µg/mL mAb [1]: 68%
primary supernatant functional assay (% inh.), NF-kB luciferase reporter [1]: 73%
EC50 (rhIL-1RAcP/Fc Chimera [2]): 0.05 µg/mL
hu-IL1RaP ELISA (OD) (rhIL-1RAcP/Fc Chimera [3]): 3.4 OD
mu-IL1RaP ELISA (OD) (mIL1RAcP-Fc): 0.1 OD

B2: P013.S.02.B.C03 (antibody, V domains shown)
VH: QSLEESGGRLVTPGTPLTLTCTVSGIDLSSYAMGWVRQAPGKGLEYIGIISNSGTTYYASWAKGRFTISKTSSTTVDLKMTSPTTEDTATYFCARDRYANTHGIFSLWGQGTLVTVSS
VL: DIVMTQTPASVSAPVGGTVTINCQASESIYSDLAWYQQKPGQPPKLLISFVATLESGVPSRFKGSGSGTEFTLTISDLESADAATYYCQCTYGGSGSGNGAAFGGGTEVVVK
notes: rabbit monoclonal antibody; also called P013.A.00085.G07
functional reporter gene assay (% inhibition), 0.04 µg/mL mAb [1]: 21%
functional reporter gene assay (% inhibition), 0.2 µg/mL mAb [1]: 27%
functional reporter gene assay (% inhibition), 1 µg/mL mAb [1]: 31%
functional reporter gene assay (% inhibition), 5 µg/mL mAb [1]: 30%
primary supernatant functional assay (% inh.), NF-kB luciferase reporter [1]: 29%
EC50 (rhIL-1RAcP/Fc Chimera [2]): 0.847 µg/mL
hu-IL1RaP ELISA (OD) (rhIL-1RAcP/Fc Chimera [3]): 3.6 OD
mu-IL1RaP ELISA (OD) (mIL1RAcP-Fc): 0.7 OD

B3: P013.S.01.B.B04 (antibody, V domains shown)
VH: QSVEESGGRLVTPGTPLTLTCTVSGIDLDNYAMGWVRQAPGKGLEYIGVISSDGFFYDASWAKGRFTISKASSTTVDLKMTGLTPEDTATYFCARDRGTSTGSLDLWGQGTLVTVSS
VL: ALVMTQTPASVSEPVGGTVTIKCQASENIGNGLAWYQQKPGQPPNLLIYGASTLASGVPSRFSGSGYGTEFTLTVSDLESGDAATYYCQCTYWNPDYIGGAFGGGTEVVVT
notes: rabbit monoclonal antibody; also called P013.A.00086.E02
functional reporter gene assay (% inhibition), 0.04 µg/mL mAb [1]: 42%
functional reporter gene assay (% inhibition), 0.2 µg/mL mAb [1]: 83%
functional reporter gene assay (% inhibition), 1 µg/mL mAb [1]: 93%
functional reporter gene assay (% inhibition), 5 µg/mL mAb [1]: 99%
primary supernatant functional assay (% inh.), NF-kB luciferase reporter [1]: 97%
EC50 (rhIL-1RAcP/Fc Chimera [2]): 0.042 µg/mL
hu-IL1RaP ELISA (OD) (rhIL-1RAcP/Fc Chimera [3]): 3.5 OD
mu-IL1RaP ELISA (OD) (mIL1RAcP-Fc): 0.5 OD

Reference: patent US20190106487A1 (Sanofi, published 2019)
